10 molecules from patent publication US20080032921A1 can be followed below.

The target in assay [1] is purified HLA DRB1*0401 (human). In words: competition with 125I-labelled reference peptide, purified HLA.
Assay [2] deals with purified HLA DRB1*1302 (human). The assay is described as above.
Assay [3] addresses purified HLA DRB1*0404 (human). The assay is described as above.
Assay [4] has as its target purified HLA DRB1*0101 (human). The assay is described as above.
For assay [5], the target named is purified HLA DRB1*0405 (human). The assay is described as above.
For assay [6], the target named is purified HLA DRB1*0301 (human). Described as above.
The target in assay [7] is HLA-DR DRB1*0301 (human). In words: competition vs 125I-labeled peptide, purified HLA.
Assay [8] addresses HLA-DR DRB1*0101 (human).
Assay [9] has as its target HLA-DR DRB1*0401 (human).
Assay [10] addresses HLA-DR DRB1*0404 (human).
Assay [11] concerns the target HLA-DR DRB1*1302 (human).
The target in assay [12] is HLA-DR DRB1*0401 (human). In words: competition with 125I-labelled reference peptide on purified HLA-DR.
For assay [13], the target named is HLA-DR DRB1*0301 (human). Described as above.
Assay [14] concerns the target HLA-DR DRB1*1302 (human). The assay is described as above.
Assay [15] has as its target HLA-DR DRB1*1501 (human). The description is as above.
For assay [16], the target named is HLA-DR DRB4*0101 (human).
For assay [17], the target named is purified HLA-DR DRB1*0405 (human). In words: competition with 125I-labelled reference peptide, purified HLA.
Assay [18] deals with purified HLA-DR DRB5*0101 (human). The description is as above.
In assay [19] the target is purified HLA-DR DRB1*0401 (human). Described as above.
Assay [20] has as its target purified HLA-DR DRB1*0404 (human). The description is as above.
Assay [21] concerns the target purified HLA-DR DRB1*1101 (human). The description is as above.
Assay [22] deals with purified HLA-DR DRB1*1501 (human). The assay is described as above.
The target of assay [23] is purified HLA-DR DRB1*0101 (human). Described as above.
The target in assay [24] is purified HLA-DR DRB1*0701 (human). The description is as above.
Assay [25] deals with purified HLA-DR DRB1*0802 (human). The description is as above.
Assay [26] addresses purified HLA-DR DRB4*0101 (human). Described as above.
Assay [27] concerns the target HLA-DR DRB1*0101 (human). In words: competition assay, purified HLA, inhibition of 125I-labelled reference peptide.
The target in assay [28] is HLA-DR DRB1*0401 (human). The description is as above.
Assay [29] concerns the target HLA-DR DRB1*1302 (human). The assay is described as above.
Assay [30] addresses HLA-DR DRB1*1501 (human). The description is as above.
For assay [31], the target named is HLA-DR DRB4*0101 (human). The assay is described as above.
A further assay concerns the target HLA-DR DRB1*0802 (human). In words: competition with 125I-labelled peptide, purified HLA.
The target of assay [32] is HLA-DR DRB1*0101 (human). The assay is described as above.
Assay [33] addresses HLA-DR DRB1*0401 (human). The assay is described as above.
Assay [34] addresses HLA-DR DRB1*0404 (human). The assay is described as above.
For assay [35], the target named is HLA-DR DRB1*1302 (human). The assay is described as above.
For assay [36], the target named is HLA-DR DRB1*1501 (human). Described as above.
A further assay has as its target HLA-DR DRB1*0701 (human). The assay is described as above.
Another assay has as its target HLA-DR DRB1*1101 (human). The description is as above.
In assay [37] the target is HLA-DR DRB4*0101 (human). Described as above.
The target of another assay is HLA-DR DRB5*0101 (human). Described as above.
Assay [38] has as its target HLA-DR DRB1*0101 (human). In words: competition vs 125I-labeled peptide, purified HLA.
In assay [39] the target is HLA-DR DRB1*0401 (human). In words: competition vs 125I-labeled peptide, purified HLA.
Assay [40] addresses HLA-DR DRB1*1302 (human). In words: competition vs 125I-labeled peptide, purified HLA.
For assay [41], the target named is HLA-DR DRB1*1501 (human). In words: competition vs 125I-labeled peptide, purified HLA.
Assay [42] concerns the target purified HLA-DR DRB1*0301 (human). In words: competition with 125I-labelled reference peptide, purified HLA.
The target of assay [43] is purified HLA-DR DRB1*1302 (human). The assay is described as above.

Like-named read-outs stand apart in the source and are kept apart here. A value given as a limit tells only on which side of the number the result lay.

AGLLVSDGGPNLYNI (modifications not checked) [Flu.PB1.590]: the IC50 in [1] was 3000 nM; in assay [2], 105 nM; in assay [3], 3490 nM; in assay [4] it was 8120 nM; in [5], > 10000 nM; in assay [6], 107 nM.
For the molecule CEQIADSQHRSHRQM (modifications not checked) [Flu.M1.154], the IC50 was 804 nM with HLA-DR DRB1*0301 (human) [7]; > 10000 nM with HLA-DR DRB1*0101 (human) [8]; > 10000 nM in the assay with HLA-DR DRB1*0401 (human) [9]; > 10000 nM in the assay with HLA-DR DRB1*0404 (human) [10]; > 10000 nM with HLA-DR DRB1*0405 (human); > 10000 nM in the assay with HLA-DR DRB1*1302 (human) [11].
Regarding NNMINNDLGPATAQM (modifications not checked) [Flu.PB1.535], the IC50 in [1] was 798 nM; in [2], 477 nM; in assay [3] it was 1830 nM; in [4] it was 3080 nM; in assay [5], > 10000 nM; in assay [6], 527 nM.
On to TQGALLNDKHSNGTVKD (modifications not checked) [Flu.NA.115 peptide …], for which the IC50 is 19000 nM with HLA-DR DRB1*0401 (human) [12]; 177 nM in the assay with HLA-DR DRB1*0301 (human) [13]; 468 nM with HLA-DR DRB1*1302 (human) [14]; 822 nM with HLA-DR DRB1*1501 (human) [15]; > 10000 nM with HLA-DR DRB1*0101 (human) [8]; > 10000 nM with HLA-DR DRB4*0101 (human) [16].
Take ESAVLRGFLILGKED (modifications not checked) [Flu.PB2.690]: the IC50 is 7100 nM in assay [17]; 303 nM in assay [18]; 13200 nM in assay [19]; 110 nM in [20]; 1030 nM in assay [21]; 39 nM in assay [22]. Further, the IC50 in [23] was determined as 8.4 nM; in [24] it was 2470 nM; in assay [25] it was 803 nM; in assay [26], 1280 nM.
For the molecule VMRMGDLHSLQNRNG (modifications not checked) [Flu.NS2.125], the IC50 with HLA-DR DRB1*0101 (human) [27] turned out to be 249 nM; with HLA-DR DRB1*0401 (human) [28] it was 448 nM; with HLA-DR DRB1*1302 (human) [29], 1370 nM; with HLA-DR DRB1*1501 (human) [30] it was 372 nM; with HLA-DR DRB4*0101 (human) [31], 8820 nM.
As to TKKMVTQRTIGKKKQ (modifications not checked) [Flu.PB1.199], the half-maximal inhibitory concentration (IC50) with HLA-DR DRB1*0802 (human) is 55 nM; with HLA-DR DRB1*0101 (human) [32] it was 1150 nM; with HLA-DR DRB1*0401 (human) [33], 71 nM; with HLA-DR DRB1*0404 (human) [34] it was 62 nM; with HLA-DR DRB1*1302 (human) [35], 6120 nM; in the assay with HLA-DR DRB1*1501 (human) [36], 9710 nM. Besides, the IC50 with HLA-DR DRB1*0701 (human) was determined as 14100 nM; with HLA-DR DRB1*1101 (human) it was 449 nM; with HLA-DR DRB4*0101 (human) [37] it was 57 nM; in the assay with HLA-DR DRB5*0101 (human), 4.1 nM.
In the case of KSSFFRNVVWLIKKN (modifications not checked) [Flu.HA.156], the IC50 was 46 nM in the assay with HLA-DR DRB1*0101 (human) [38]; 474 nM in the assay with HLA-DR DRB1*0401 (human) [39]; 20 nM with HLA-DR DRB1*1302 (human) [40]; 832 nM with HLA-DR DRB1*1501 (human) [41]; > 10000 nM with HLA-DR DRB4*0101 (human) [16].
For DILMRMSKMQLGSSS (modifications not checked) [Flu.NS2.87], the IC50 with HLA-DR DRB1*0101 (human) [27] stood at 2140 nM; with HLA-DR DRB1*0401 (human) [28], 717 nM; with HLA-DR DRB1*1302 (human) [29] it was 423 nM; with HLA-DR DRB1*1501 (human) [30] it was 748 nM; with HLA-DR DRB4*0101 (human) [31], 11 nM.
With LIQLIVSGRDEQSIA (modifications not checked) [Flu.PB2.384], the IC50 in assay [17] stood at 460 nM; in [18], 1720 nM; in assay [19] it was 83 nM; in assay [20], 90 nM; in [21], 2010 nM; in assay [22], 420 nM. Besides, the IC50 in assay [42] turned out to be 53 nM; in [23], 3220 nM; in assay [43] it was 4680 nM; in assay [26] it was 9.9 nM.
